Reference: PMC2174006 (The Journal of Cell Biology, 2002)
No end group written: not given here.

Molecular target: recombinant murine [32P]RIIα (murine, UniProt P12367 1-401, 32P-labelled)
Experiment: peptide or protein array

Chain of recombinant murine [32P]RIIα (P12367 whole entry): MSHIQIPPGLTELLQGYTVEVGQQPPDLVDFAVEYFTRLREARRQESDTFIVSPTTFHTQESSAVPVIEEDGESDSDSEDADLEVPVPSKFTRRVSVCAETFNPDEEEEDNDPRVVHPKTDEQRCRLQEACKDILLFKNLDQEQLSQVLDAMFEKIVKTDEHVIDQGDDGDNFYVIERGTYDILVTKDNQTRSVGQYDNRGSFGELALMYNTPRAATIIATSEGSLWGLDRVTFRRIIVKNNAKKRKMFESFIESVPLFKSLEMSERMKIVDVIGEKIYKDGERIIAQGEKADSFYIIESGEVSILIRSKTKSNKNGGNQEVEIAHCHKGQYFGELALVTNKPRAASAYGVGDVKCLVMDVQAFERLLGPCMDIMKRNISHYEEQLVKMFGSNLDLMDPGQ

- binding result: binds
Binder: Ac-NINIEEAARFLVEKILVNHQ [Rab32 peptide 178–197]
